# The DeepSol protein solubility set
# Assay: soluble on expression in E. coli; label from the status in PepcDB or PDB records
row,Sequence,soluble on expression in E. coli
1,AMNLIFLGTSAGVPTRTRNVTAILLNLQHPTQSGLWLFDCGEGTQHQLLHTAFNPGKLDKIFISHLHGDHLFGLPGLLCSRSMSGIIQPLTIYGPQGIREFVETALRISGSWTDYPLEIVEIGAGEILDDGLRKVTAYPLEHPLECYGYRIEEHDAPGALNAQALKAAGVPPGPLFQELKAGKTITLEDGRQINGADYLAAPVPGKALAIFGDTGPCDAALDLAKGVDVMVHEATLDITMEAKANSRGHSSTRQAATLAREAGVGKLIITHVSSRYDDKGCQHLLRECRSIFPATELANDFTVFNV,soluble
2,AMNTDLKLPAGKTMTIEDVKQLLERYQMALKKTGEQLGWAYEQAAFPYTVRIHESVLYLQGDGRLYKGMAISVRTAGEETFIDIALPPGATHGDKGKANEFSKWLAKTLGGELHLFSGRTMVFGSA,soluble
3,ANLYWFRADWFDDADTKAAFKEKYGYDLGVPLNWSAYEDIAEFFTGRDMSALGGPKSAYGSMDYGKKDPSLGWRYTDAWMSMAGMGDKGDPNGLPVDEWGIRVDENSRPVGSCVARGGATNDAAAVYAITKSIEWLQKYAPPQAAGMTFSESGPVPAQGEVAQQIFWYTAFTADMVKEGLPVMNEDGTPKWRMAPSPHGAYWSEGTKVGYQDVGSWTLLKSTPDERAKAAWLYAQFVSSKTVDVKKSHVGLTFVRESTIQHQ,not soluble
4,APADKPQVLASFTQTSASSQNAWLAANRNQSAWAAYEFDWSTDLCTQAPDNPFGFPFNTACARHDFGYRNYKAAGSFDANKSRIDSAFYEDMKRVCTGYTGEKNTACNSTAWTYYQAVKIFG,soluble
5,APPAAGQQQPPREPPAAPGAWRQQIQWENNGQVFSLLSLGSQYQPQRRRDPGAAVPGAANASAQQPRTPILLIRDNRTAAARTRTAGSSGVTAGRPRPTARHWFQAGYSTSRAREAGASRAENQTAPGEVPALSNLRPPSRVDGMVGDDPYNPYKYSDDNPYYNYYDTYERPRPGGRYRPGYGTGYFQYGLPDLVADPYYIQASTYVQKMSMYNLRCAAEENCLASTAYRADVRDYDHRVLLRFPQRVKNQGTSDFLPSRPRYSWEWHSCHQHYHSMDEFSHYDLLDANTQRRVAEGHKASFCLEDTSCDYGYHRRFACTAHTQGLSPGCYDTYGADIDCQWIDITDVKPGNYILKVSVNPSYLVPESDYTNNVVRCDIRYTGHHAYASGCTISPY,soluble
6,AQFQYPFKEVYYLETSPRAHRVILYTKTDRLEFTASLEEVFKQEPRLLQCHRSFLINPANVVHLDKKEKLLFFPNGGSCLIARYKVREVSEAINKLH,not soluble
7,AQGQQGQVRLLCNTAALTEYLPELLASYLAENPGVSVDVQELPSLRIVQAITQGMADLGIVSTAAPSEHLQTRPFRDDPLVLVTPQAHPLASALAPSFVDSLAHGYVGLGAGSALGLYLEEQALHEGQRMQVRVRAEGFDGV,not soluble
8,AQVSNGSNSGQMEEINTKEVAQRITTELKRYSIPQAIFAQRVLCRSQGTLSDLLRNPKPWSKLKSGRETFRRMWKWLQEPEFQRMSALRLAACKRKEQEHGKDRGNT,soluble
9,ARTVVLITGCSSGIGLHLAVRLASDPSQSFKVYATLRDLKTQGRLWEAARALACPPGSLETLQLDVRDSKSVAAARERVTEGRVDVLVCNAGLGLLGPLEALGEDAVASVLDVNVVGTVRMLQAFLPDMKRRGSGRVLVTGSVGGLMGLPFNDVYCASKFALEGLCESLAVLLLPFGVHLSLIECGPVHTAFMEKVLGSPEEVLDRTDIHTFHRFYQYLAHSKQVFREAAQNPEEVAEVFLTALRAPKPTLRYFTTERFLPLLRMRLDDPSGSNYVTAMHREVFGDVPAKAEAGAEAGGGAGPGAEDEAGRSAVGDPELGDPPAAPQ,soluble
10,ARVDQTPQRITKETGESLTINCVVRDSRCVLSTGYWYRKPPGSRNEESISDGGRYVETVNRGSKSFSLRINDLTVKDSGTYRCKPESRYGSYDAVCAALNDQYGGGTVVTVNAAAHHHHHH,soluble
11,ASASTPHALLLISIDGLRADMLDRGITPNLSHLAREGVRARWMAPSYPSLTFPNHYTLVTGLRPDHHGIVHNSMRDPTLGGFWLSKSEAVGDARWWGGEPVWVGVENTGQHAATWSWPGSEAAIKGVRPSQWRHYQKGVRLDTRVDAVRGWLATDGAQRNRLVTLYFEHVDEAGHDHGPESRQYADAVRAVDAAIGRLLAGMQRDGTRARTNIIVVSDHGMAEVAPGHAISVEDIAPPQIATAITDGQVIGFEPLPGQQAAAEASVLGAHDHYDCWRKAELPARWQYGSHPRIPSLVCQMHEGWDALFPDKLAKRAQRGTRGSHGYDPALPSMRAVFLAQGPDLAQGKTLPGFDNVDVYALMSRLLGIPAAPNDGNPATLLPALRMPPAPDAR,soluble
12,ASEEEKAWLMASRQQLAKETSNFGFSLLRKISMRHDGNMVFSPFGMSLAMTGLMLGATGPTETQIKRGLHLQALKPTKPGLLPSLFKGLRETLSRNLELGLTQGSFAFIHKDFDVKETFFNLSKRYFDTECVPMNFRNASQAKRLMNHYINKETRGKIPKLFDEINPETKLILVDYILFKGKWLTPFDPVFTEVDTFHLDKYKTIKVPMMYGAGKFASTFDKNFRCHVLKLPYQGNATMLVVLMEKMGDHLALEDYLTTDLVETWLRNMKTRNMEVFFPKFKLDQKYEMHELLRQMGIRRIFSPFADLSELSATGRNLQVSRVLQRTVIEVDERGTEAVAGILSEITAYSMPPVIKVDRPFHFMIYEETSGMLLFLGRVVNPTLL,soluble
13,ASELNIYSARHYNADFEIIKKFEEKTGIKVNHTQAKASELIKRLSLEGSNSPADIFITADISNLTEAKNLGLLSPVSSKYLEEFIPAHLRDKDKEWFAITKRARIIAYNKNTNIDISKMKNYEDLAKAEFKGEIVMRSATAPYSKTLLASIIANDGNKEAKAWAKGVLENLATNPKGGDRDQARQVFAGEAKFAVMNTYYIGLLKNSKNPKDVEVGNSLGIIFPNQDNRGTHINISGIAMTKSSKNQDAAKKFMEFMLSPEIQKILTDSNYEFPIRNDVELSQTVKDFGTFKEDQIPVSKIAENIKEAVKIYDEVGFRIEGR,soluble
14,ASIYKNKKSHEQLSALKGSFCRNQFPGQSEVEHLTKVTGLSTREVRKWFSDRRYHCRNLKGSR,soluble
15,ASMTGGQQMGRGSASLPACPEESPLLVGPMLIEFNMPVDLELVAKQNPNVKMGGRYAPRDCVSPHKVAIIIPFRNRQEHLKYWLYYLHPVLQRQQLDYGIYVINQAGDTIFNRAKLLNVGFQEALKDYDYTCFVFSDVDLIPMNDHNAYRCFSQPRHISVAMDKFGFSLPYVQYFGGVSALSKQQFLTINGFPNNYWGWGGEDDDIFNRLVFRGMSISRPNAVVGTTRHIRHSRDKKNEPNPQRFDRIAHTKETMLSDGLNSLTYQVLDVQRYPLYTQITVDIGTPS,soluble
16,ASRPHQWQTDEEGVRTGKCSFPVKYLGHVEVDESRGMHICEDAVKRLKATGKKAVKAVLWVSADGLRVVDEKTKDLIVDQTIEKVSFCAPDRNFDRAFSYICRDGTTRRWICHCFMAVKDTGERLSHAVGCAFAACLERKQKR,soluble
17,ASVKDTYTDRLDDWNGIIAGNQYYDSKNDQMAKLNQELEGKVADSLSSISSQADRIYLWEKFSNYKTSANLTATYRKLEEMAKQVTNPSSRYYQDETVVRTVRDSMEWMHKHVYNSEKSIVGNWWDYEIGTPRAINNTLSLMKEYFSDEEIKKYTDVIEKFVPDPEHFRKTTDNPFKALGGNLVDMGRVKVIAGLLRKDDQEISSTIRSIEQVFKLVDQGEGFYQDGSYIDHTNVAYTGAFGNVLIDGLSQLLPVIQKTKNPIDKDKMQTMYHWIDKSFAPLLVNGELMDMSRGRSISRANSEGHVAAVEVLRGIHRIADMSEGETKQRLQSLVKTIVQSDSYYDVFKNLKTYKDISLMQSLLSDAGVASVPRTSYLSAFNKMDKTAMYNAEKGFGFGLSLFSSRTLNYEHMNKENKRGWYTSDGMFYLYNGDLSHYSDGYWPTVNPYKMPGTTETDAKRADSDTGKVLPSAFVGTSKLDDANATATMDFTNWNQTLTAHKSWFMLKDKIAFLGSNIQNTSTDTAATTIDQRKLESSNPYKVYVNDKEASLTEQEKDYPETQSVFLESSDSKKNIGYFFFKKSSISMSKALQKGAWKDINEGQSDKEVENEFLTISQAHKQNGDSYGYMLIPNVDRATFNQMIKELESSLIENNETLQSVYDAKQGVWGIVKYDDSVSTISNQFQVLKRGVYTIRKEGDEYKIAYYNPETQESAPDQEVFKKLEQHHHHHH,soluble
18,ATGPRYKVPMRRRREARTDYHQRLRLLKSGKPRLVARKSNKHVRAQLVTLGPNGDDTLASAHSSDLAEYGWEAPTGNMPSAYLTGLLAGLRAQEAGVEEAVLDIGLNSPTPGSKVFAIQEGAIDAGLDIPHNDDVLADWQRTRGAHIAEYDEQLEEPLYSGDFDAADLPEHFDELRETLLDGDIEL,soluble
19,ATRDFLQRAEAAYKTDGGAAGLGQKAFVKMMQEVCELPSMVAYSLFKRLTGCEAGEEEGAAVPRDTFIKFWTGRGLVTAPPPKRAFDSLRPDGQDYLTFADFWPMMECVLRYHPGLEFLAETQEFQRKYAETVIHRIFYSLNKCGSGRLTFREFRSGELMDALYALDRENDINKILKFFSYEHFYVIYCKFWELDQDHDFQLDKTDLAHYSNCALSYVIVDRIFEEAPRKFKAGTPPGKMCYEDFVWFILSEEDKTTDTALTYWFRCVDLDGDGVIRPREMLYFYEEQLRRLEGWNQEPVQFEDLLCQLHDMLSPAKEGAFTLRDLKRTKPQSGLFFSSLFSLHKFVGFENRDPFAQRAEAAEFTGLSDWDKFAKIEYFRLASEDD,soluble
20,ATYAAASSALVPRGSHMYAPKLQGPVAVYTWEGNQVNITCEVFAYPSATISWFRDGQLLPSSNYSNIKIYNTPSASYLEVTPDSENDFGNYNCTAVNRIGQESLEFILVQADTPSSPSIDQVEPYSSTAQVQFDEPEATGGVPILKYKAEWRAVGEEVWHSKWYDAKEASMEGIVTIVGLKPETTYAVRLAALNGKGLGEISAASEFKTQPVQGE,soluble
21,AYGKKSQTEVISFEEVVHPAEKIREALQVGKNEAIYELIRRRMLDGEPMTVEKIYLPQAYVQGHTKQDFEGSLFCLIEKNVEIAYSHQEIEAILVEAEISELLNVPVGQPLLQVHSITYALDATPILYDVSLYRADRYTFKNTLTRYSPSENNQVELGGSWNE,soluble
22,DAKEKRLREIQFEKEMIERDMREYRGFSRAVRAVFEEKERFPGLVDVVSNLIEVDEKYSLAVSVLLGGTAQNIVVRNVDTAKAIVEFLKQNEAGRVTILPLDLIDGSFNRISGLENERGFVGYAVDLVKFPSDLEVLGGFLFGNSVVVETLDDAIRMKKKYRLNTRIATLDGELISGRGAITGGREERSSNVFERRIKLKHLEQEMEETERQI,soluble
23,DALESKKINEALLKQGEALINQLNDRARADTVRYAEEVVKTAAERVKEASQNLTDYRIANGVFDLKAQSEVQMGLVSKLQDELIVIQTQLDQVKAVTPENPQIPGLQAREQSLRKEIDQQLRAISGGGHSSLSNQAAEYQRVYLENQLAEQQLAAAMTSLESAKVEADRQQLYLEVISQPSLPDLAHEPKR,soluble
24,DALNRFHDQPLNETELLALMGEMEGKISGGIHYDNVAPCYLGGVQLMLEELGIISQEVPCFDEWYWVMAYPGIKVSTAEAREILPSQYRRQDIIAHGRHLAGFIHACHSGQPELAAKMIKDVIAEPYREKLLPGFANARQ,not soluble
25,DDDLEVKEENGVWVLNDGNFDNFVADKDTVLLEFYAPWCGHCKQFAPEYEKIASTLKDNDPPIAVAKIDATSASMLASKFDVSGYPTIKILKKGQAVDYDGSRTQEEIVAKVREVSQPDWTPPPEVT,soluble
26,DDIHLIATSDVLYFKAEEKYVSVYAQQGKGEVQEYLIRTSLKELIGQLNPEQFWQVHRSSVVQVSKISKVNKDFAGRMFVYVGETKLPVSRASQSLFKGM,not soluble
